Patent publication US20250074980A1 (BRIGHAM AND WOMEN S HOSPITAL, published 2025)

T1: His-tagged CEACAM1 (human, UniProt P13688 35-428)
T1 construct: 45 kDa SPR analyte; also called CEACAM1-HIS; CEACAM1 analyte
T1 sequence: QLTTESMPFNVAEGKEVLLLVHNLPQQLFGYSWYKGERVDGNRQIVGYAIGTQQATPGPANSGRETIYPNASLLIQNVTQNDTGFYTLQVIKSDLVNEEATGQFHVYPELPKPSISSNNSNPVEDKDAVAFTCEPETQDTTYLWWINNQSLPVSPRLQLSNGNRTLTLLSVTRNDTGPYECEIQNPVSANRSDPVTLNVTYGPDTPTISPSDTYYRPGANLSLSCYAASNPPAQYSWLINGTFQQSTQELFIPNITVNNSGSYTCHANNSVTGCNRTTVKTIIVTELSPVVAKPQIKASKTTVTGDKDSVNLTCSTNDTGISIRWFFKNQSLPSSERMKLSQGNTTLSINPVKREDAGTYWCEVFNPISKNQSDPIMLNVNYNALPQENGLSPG


Target: T1, His-tagged CEACAM1
Assay: SPR single-cycle, IgG captured
Experimental: As an alternative approach to assess the binding of the 36 antibody combinations and the three control antibodies to CEACAM1, a kinetic analysis was performed on a Biacore T200 (serial no. 1909913) running Biacore T200 Evaluation Software V2.0.1 (Uppsala, Sweden). All experiments were run at 25° C. with HBS-P+ running buffer (pH 7.4) (GE Healthcare, cat. no. BR100671). All kinetic experiments were performed using His-tagged CEACAM1 as the analyte. For all experiments, antibodies were immobilized onto a Series S Protein A sensor chip surface. For kinetic experiments, the amount of immobilized/captured ligand was limited to avoid mass transfer effects at the surface of the chip with the surface ideally having an analyte binding level (Rₘₐₓ) of 50-150 RUs. Using a MW of 45 kDa for the CEACAM1 analyte, 150 kDa for the antibody ligand (estimated value for IgG), 50 RU for Rmax and the stoichiometry (Sm) as 2 due to the ability of each antibody to bind 2 target molecules, a target response level of ˜75 RUs was set for capture of all the sample antibodies.
Single cycle analysis of the 36 antibody combinations and the three control antibodies was performed on purified antibodies (Vκ1 to Vκ6 variants) or on the supernatants of the transiently transfected HEK EBNA cells (Vκ7 to Vκ12 variants). In some instances, where supernatant was not available, purified chimeric antibody VH0/Vκ0 was spiked into HEK EBNA culture medium to use as a positive control. Antibodies were diluted in HBS-P+ to a concentration of 1 μg/ml (as determined by an IgG quantitation ELISA). At the start of each cycle, antibodies were loaded onto Fc2, Fc3 and Fc4 of a protein A chip and IgG captured at a flow rate of 8 μl/min to give an RU of ˜75. The surface was then allowed to stabilize. Single cycle kinetic data was obtained at a flow rate of 50 μl/min to minimize any potential mass transfer effects. Multiple repeats of the chimeric antibody VH0/Vκ0 were performed to check the stability of the surface and analyte over the kinetic cycles. The signal from the reference channel Fc1 (no antibody) was subtracted from that of Fc2, Fc3 and Fc4 to correct for differences in non-specific binding to a reference surface. A 5 point 2-fold dilution range from 3.125 to 50 nM CEACAM1 without regeneration between each concentration was used.

Binder	Kd [nM]	relative KD to VH0/Vκ0	binding result
VH1/Vκ0 (antibody, IgG4, V domains shown, IgG4 (S241P), kappa; also called VH1/Vκ0 (control)) VH: EVQLLESGGGLVQPGGSLRLSCAASGFIFSSHGMSWVRQAPGKGLEWVATISSGGTYTYYPDSVKGRFTISRDNSKNTLYLQMNSLKAEDTAMYYCARHDFDYDAAWFAYWGQGTLVTVSS VL: QIVLTQSPALMSASPGVKVTMTCSANSSVSYMYWYRQKPRSSPKPWIYLTSNLASGVPARFSGSGSGTSYSLTISSMEAEDAATYYCQQWSSNPPTFGSGTKLEIK	64	1.5	–
VH0/Vκ1 (antibody, IgG4, V domains shown, IgG4 (S241P), kappa; also called VH0/Vκ1 (control)) VH: EVQLVESGGDLVKPGGSLKLACAASGFIFSSHGMSWVRQTPDKRLEWVATISSGGTYTYYPDSVKGRFTISRDNDKNTLYLQMNSLKSEDTAMYYCARHDFDYDAAWFAYWGQGTLVTVSS VL: QIVLTQSPALLSLSPGERATMSCSANSSVSYMYWYRQKPGQAPKPWIYLTSNLASGVPARFSGSGSGTDYTLTISSLEAEDFATYYCQQWSSNPPTFGQGTKLEIK	49	1.2	–
VH2/Vκ6 (antibody, IgG4, V domains shown, IgG4 (S241P), kappa) VH: EVQLLESGGGLVQPGGSLRLSCAASGFIFSSHGMSWVRQAPGKGLEWVATISSGGTYTYYPDSVKGRFTISRDNSKNTLYLQMNSLRAEDTAMYYCARHDFDYDAAWFAYWGQGTLVTVSS VL: DIQLTQSPSFLSASVGDRVTITCRANSSVSYMAWYQQKPGKAPKLLIYLTSNLQSGVPSRFSGSGSGTEFTLTISSLQPEDFATYYCQQWSSNPPTFGQGTKLEIK	–	–	no binding (tested: 50 nM)
VH1/Vκ6 (antibody, IgG4, V domains shown, IgG4 (S241P), kappa) VH: EVQLLESGGGLVQPGGSLRLSCAASGFIFSSHGMSWVRQAPGKGLEWVATISSGGTYTYYPDSVKGRFTISRDNSKNTLYLQMNSLKAEDTAMYYCARHDFDYDAAWFAYWGQGTLVTVSS VL: DIQLTQSPSFLSASVGDRVTITCRANSSVSYMAWYQQKPGKAPKLLIYLTSNLQSGVPSRFSGSGSGTEFTLTISSLQPEDFATYYCQQWSSNPPTFGQGTKLEIK	–	–	no binding (tested: 50 nM)
VH4/Vκ6 (antibody, IgG4, V domains shown, IgG4 (S241P), kappa) VH: EVQLLESGGGLVQPGGSLRLSCAASGFIFSSHGMSWVRQAPGKGLEWVSTISSGGTYTYYADSVKGRFTISRDNSKNTLYLQMNSLRAEDTAVYYCARHDFDYDAAWFAYWGQGTLVTVSS VL: DIQLTQSPSFLSASVGDRVTITCRANSSVSYMAWYQQKPGKAPKLLIYLTSNLQSGVPSRFSGSGSGTEFTLTISSLQPEDFATYYCQQWSSNPPTFGQGTKLEIK	–	–	no binding (tested: 50 nM)
VH3/Vκ6 (antibody, IgG4, V domains shown, IgG4 (S241P), kappa) VH: EVQLLESGGGLVQPGGSLRLSCAASGFIFSSHGMSWVRQAPGKGLEWVATISSGGTYTYYADSVKGRFTISRDNSKNTLYLQMNSLRAEDTAMYYCARHDFDYDAAWFAYWGQGTLVTVSS VL: DIQLTQSPSFLSASVGDRVTITCRANSSVSYMAWYQQKPGKAPKLLIYLTSNLQSGVPSRFSGSGSGTEFTLTISSLQPEDFATYYCQQWSSNPPTFGQGTKLEIK	–	–	no binding (tested: 50 nM)
